In US20110014635:

Legend:
Alcadein β = system: T1, Alcadein β
T1 sequence: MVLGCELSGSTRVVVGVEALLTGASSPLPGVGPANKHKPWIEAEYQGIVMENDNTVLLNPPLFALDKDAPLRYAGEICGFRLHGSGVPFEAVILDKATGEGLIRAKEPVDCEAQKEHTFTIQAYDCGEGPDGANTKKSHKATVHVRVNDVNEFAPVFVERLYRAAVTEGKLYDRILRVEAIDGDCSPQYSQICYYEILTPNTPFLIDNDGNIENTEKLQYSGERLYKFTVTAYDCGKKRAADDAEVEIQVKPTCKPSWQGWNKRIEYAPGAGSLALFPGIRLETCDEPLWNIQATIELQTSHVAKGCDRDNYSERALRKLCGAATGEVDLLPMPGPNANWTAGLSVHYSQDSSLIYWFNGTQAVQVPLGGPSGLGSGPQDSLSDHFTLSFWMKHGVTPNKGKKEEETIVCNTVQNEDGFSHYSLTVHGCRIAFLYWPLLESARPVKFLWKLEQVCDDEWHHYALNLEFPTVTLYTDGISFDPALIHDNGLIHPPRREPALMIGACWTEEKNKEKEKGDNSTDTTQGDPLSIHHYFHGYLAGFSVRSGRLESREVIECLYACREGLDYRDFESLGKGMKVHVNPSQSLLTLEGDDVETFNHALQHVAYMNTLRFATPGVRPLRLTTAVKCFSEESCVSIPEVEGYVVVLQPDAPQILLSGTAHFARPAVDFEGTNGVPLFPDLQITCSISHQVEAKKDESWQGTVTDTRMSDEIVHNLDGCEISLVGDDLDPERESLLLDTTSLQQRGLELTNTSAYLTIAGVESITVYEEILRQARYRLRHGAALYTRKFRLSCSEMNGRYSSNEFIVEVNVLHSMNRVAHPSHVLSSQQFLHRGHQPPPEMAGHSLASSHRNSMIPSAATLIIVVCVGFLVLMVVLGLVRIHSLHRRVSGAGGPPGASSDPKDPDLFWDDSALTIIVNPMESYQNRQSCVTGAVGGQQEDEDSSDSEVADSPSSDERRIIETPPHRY

Alcadein α (human Alcα1) = system: T2, Alcadein α (human Alcα1)
T2 sequence: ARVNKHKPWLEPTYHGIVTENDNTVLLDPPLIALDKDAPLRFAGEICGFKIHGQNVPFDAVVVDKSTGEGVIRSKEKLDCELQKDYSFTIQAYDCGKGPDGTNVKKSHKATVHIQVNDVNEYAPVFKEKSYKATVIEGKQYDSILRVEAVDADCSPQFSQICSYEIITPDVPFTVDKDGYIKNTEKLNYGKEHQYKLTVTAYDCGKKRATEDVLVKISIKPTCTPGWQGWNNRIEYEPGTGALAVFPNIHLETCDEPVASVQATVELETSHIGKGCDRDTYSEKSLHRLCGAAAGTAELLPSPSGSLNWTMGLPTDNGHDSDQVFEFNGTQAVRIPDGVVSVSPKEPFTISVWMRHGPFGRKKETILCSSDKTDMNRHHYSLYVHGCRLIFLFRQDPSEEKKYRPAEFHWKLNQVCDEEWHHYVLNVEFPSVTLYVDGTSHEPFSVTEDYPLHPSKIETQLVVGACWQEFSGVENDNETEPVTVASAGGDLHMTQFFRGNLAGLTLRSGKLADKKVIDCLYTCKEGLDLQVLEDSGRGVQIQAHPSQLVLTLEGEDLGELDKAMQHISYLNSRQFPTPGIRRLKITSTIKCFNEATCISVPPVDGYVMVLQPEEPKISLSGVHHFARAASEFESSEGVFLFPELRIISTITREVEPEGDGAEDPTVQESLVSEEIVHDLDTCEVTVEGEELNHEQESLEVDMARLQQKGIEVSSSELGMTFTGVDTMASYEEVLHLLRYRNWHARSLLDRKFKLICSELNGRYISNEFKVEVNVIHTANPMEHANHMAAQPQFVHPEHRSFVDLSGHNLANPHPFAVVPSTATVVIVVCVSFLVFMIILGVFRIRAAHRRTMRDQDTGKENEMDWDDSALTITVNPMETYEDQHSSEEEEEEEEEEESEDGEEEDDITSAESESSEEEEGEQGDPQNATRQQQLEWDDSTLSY

Alcadein γ = system: T3, Alcadein γ
T3 sequence: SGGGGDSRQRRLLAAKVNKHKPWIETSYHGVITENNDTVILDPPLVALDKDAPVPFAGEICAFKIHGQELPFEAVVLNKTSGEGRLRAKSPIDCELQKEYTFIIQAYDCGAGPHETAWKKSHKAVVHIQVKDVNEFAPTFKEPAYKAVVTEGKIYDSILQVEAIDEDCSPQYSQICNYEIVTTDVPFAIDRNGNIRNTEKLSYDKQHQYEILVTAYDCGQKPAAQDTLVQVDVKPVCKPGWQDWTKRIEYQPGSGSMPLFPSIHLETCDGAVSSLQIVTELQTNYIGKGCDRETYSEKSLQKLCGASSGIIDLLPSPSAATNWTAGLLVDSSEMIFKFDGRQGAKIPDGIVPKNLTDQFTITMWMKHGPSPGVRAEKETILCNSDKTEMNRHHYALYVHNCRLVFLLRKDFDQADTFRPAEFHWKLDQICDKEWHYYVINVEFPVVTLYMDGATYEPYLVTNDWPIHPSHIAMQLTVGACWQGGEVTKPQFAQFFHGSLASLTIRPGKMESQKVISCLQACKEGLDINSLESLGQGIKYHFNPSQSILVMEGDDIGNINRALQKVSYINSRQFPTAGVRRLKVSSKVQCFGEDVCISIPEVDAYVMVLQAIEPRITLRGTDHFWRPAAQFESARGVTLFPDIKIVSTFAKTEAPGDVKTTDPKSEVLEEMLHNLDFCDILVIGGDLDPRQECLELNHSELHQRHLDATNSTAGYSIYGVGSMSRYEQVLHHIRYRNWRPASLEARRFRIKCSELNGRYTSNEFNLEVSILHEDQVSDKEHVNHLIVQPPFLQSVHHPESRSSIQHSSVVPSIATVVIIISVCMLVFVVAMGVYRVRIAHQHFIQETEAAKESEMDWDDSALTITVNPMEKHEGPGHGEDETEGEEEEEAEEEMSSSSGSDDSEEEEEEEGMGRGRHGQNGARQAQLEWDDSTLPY

Substance: presenilin (endogenous, HEK293 cells)
- fragments containing the C-terminal from incubated membrane fractions, Western blot (Alcadein β): such fragments were not detected in the samples to which the presenilin inhibitor was added
- fragments containing the C-terminal (Alcα-ICD) from incubated membrane fractions, Western blot (Alcadein α (human Alcα1)): such fragments were not detected in the samples to which the presenilin inhibitor was added
- fragments containing the C-terminal from incubated membrane fractions, Western blot (Alcadein γ): such fragments were not detected in the samples to which the presenilin inhibitor was added
